Data on five molecules can be found in publication PMC5683694 (ACS Omega, 2017).

Positions of bridges follow the written chain, without caps; N, C: chain ends. No end group written: not given here.

For data set [1] the following is noted: cited from earlier work.
The test system of another data set is live cells. Conditions: fluorescence correlation microscopy on live cells; cited from earlier work.
The target of data set [2] is Grb7-SH2 domain (growth factor receptor bound protein 7, residues 415-532) (UniProt Q14451 415-532). Nature of the data set: thermal shift assay.
Chain of Grb7-SH2 domain (growth factor receptor bound protein 7, residues 415-532) (Q14451 415-532): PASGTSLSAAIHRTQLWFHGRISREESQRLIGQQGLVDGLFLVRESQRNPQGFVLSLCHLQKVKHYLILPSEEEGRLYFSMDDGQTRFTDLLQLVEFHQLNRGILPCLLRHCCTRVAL

Take FQNRRMKWKK: the “uptake compared to that of the full-length Penetratin sequence” value in data set [1] is recorded as “negligible uptake”. As for NRRMKWKK, in the data set on live cells, the translocation efficiency result is listed as “poor translocation efficiency”. Take {CH2CO}-WFEGYDNTFPC (thioether N-11) [G7-18NATE (cyclo-CH2CO-WFEGYDNTFPC)]: in data set [2], the “change in Tm” value was found to be 0.8 °C. Regarding {CH2CO}-WFEGYDNTFPCRRMKWKK (thioether N-11) [G7-18NATE-P7 (cyclo-(CH2CO-WFEGYDNTFPC-RRMKWKK))], the “change in Tm” value in data set [2] came to 1.8 °C. The same measure, in the same setting: the result for {CH2CO}-WFEGYDNTFPCRQIKIWFQNRRMKWKK (thioether N-11) [G7-18NATE-P16 (cyclo-(CH2CO-WFEGYDNTFPC-RQIKIWFQNRRMKWKK))] reads 0.74 °C.
